Laboratory results: publication PMC10702477

Key:
[1] = substrate: O=c1cc(-c2ccccc2)c2c(O)cc(O)cc2o1; test: RP-HPLC product/acceptor peak ratio, Michaelis-Menten fit; format: biochemical, Arabidopsis thaliana; conditions: 500 μM UDP-Glc, 50 mM TBT buffer at optimal pH, 293 K; product 7-O-Glc; 20.0 °C
[2] = substrate: Cc1cc(=O)oc2cc(O)cc(O)c12; test: as above; format: biochemical, Arabidopsis thaliana; conditions: 500 μM UDP-Glc, 50 mM TBT buffer at optimal pH, 293 K; product 5-O-Glc; 20.0 °C

B1: AtUGT78D2 (Arabidopsis thaliana) (protein)
chain: MTKPSDPTRDSHVAVLAFPFGTHAAPLLTVTRRLASASPSTVFSFFNTAQSNSSLFSSGDEADRPANIRVYDIADGVPEGYVFSGRPQEAIELFLQAAPENFRREIAKAETEVGTEVKCLMTDAFFWFAADMATEINASWIAFWTAGANSLSAHLYTDLIRETIGVKEVGERMEETIGVISGMEKIRVKDTPEGVVFGNLDSVFSKMLHQMGLALPRATAVFINSFEDLDPTLTNNLRSRFKRYLNIGPLGLLSSTLQQLVQDPHGCLAWMEKRSSGSVAYISFGTVMTPPPGELAAIAEGLESSKVPFVWSLKEKSLVQLPKGFLDRTREQGIVVPWAPQVELLKHEATGVFVTHCGWNSVLESVSGGVPMICRPFFGDQRLNGRAVEVVWEIGMTIINGVFTKDGFEKCLDKVLVQDDGKKMKCNAKKLKELAYEAVSSKGRSSENFRGLLDAVVNII
[1]
  Km: 28.9 ± 4.8 µM
  kcat: 0.132 ± 0.00667 s⁻¹
[2]
  Km: 34.4 ± 4.3 µM
  kcat: 0.932 ± 0.04 s⁻¹
